Laboratory results as given in patent publication US20040202655A1.

Experiments:
[1] = target: IGF1R extracellular domain (human) (UniProt P08069); assay: SPR (BIAcore), IgG captured on protein A, IGF1R extracellular domain in flow
[2] = target: IGF1R extracellular domain (human) (UniProt P08069); assay: SPR (BIAcore), IgG captured on mouse anti-human IgG, IGF1R extracellular domain in flow

Kd [1]	Kd [2]	Binder
0.109 nM	0.503 nM	PINT-8A1 IgG (antibody, V domains shown) VH: EVQLVQSGAEVKKPGESLTISCKGPGYNFFNYWIGWVRQMPGKGLEWMGIIYPTDSDTRYSPSFQGQVTISVDKSISTAYLQWSSLKASDTAMYYCARSIRYCPGGRCYSGYYGMDVWGQGTMVTVSS VL: SELTQDPAVSVALGQTVRITCQGDSLRSYYASWYQQKPGQAPVLVIYGKNNRPSGIPDRFSGSSSGNTASLTITGAQAEDEADYYCNSRDSSGNHVVFGGGTKLTVLG
0.24 nM	0.138 nM	PINT-9A2 IgG (antibody, V domains shown) VH: QVQLVQSGAEVRKPGASVKVSCKTSGYTFRNYDINWVRQAPGQGLEWMGRISGHYGNTDHAQKFQGRFTMTKDTSTSTAYMELRSLTFDDTAVYYCARSQWNVDYWGRGTLVTVSS VL: LNFMLTQPHSVSESPGKTVTISCTRSSGSIASNYVQWYQQRPGSSPTTVIFEDNRRPSGVPDRFSGSIDTSSNSASLTISGLKTEDEADYYCQSFDSTNLVVFGGGTKVTVLG
